Measured values reported in FireProtDB (doi:10.1021/bi9901228).

Settings: Homo sapiens; pH 2.7; Thermal; DSC; glycine 0.05 M; reversible: yes; whole UniProt chain shown

B1: Lysozyme C wild type, P61626 (protein)
chain: MKALIVLGLVLLSVTVQGKVFERCELARTLKRLGMDGYRGISLANWMCLAKWESGYNTRATNYNAGDRSTDYGIFQINSRYWCNDGKTPGAVNACHLSCSALLQDNIADAVACAKRVVRDPQGIRAWVAWRNRCQNRDVRQYVQGCGV
Tm: 64.9 °C
heat capacity change of unfolding: 1.58 kcal/mol/K
unfolding enthalpy (calorimetric): 114 kcal/mol
